According to patent publication US20250382363A1 (NUMAB THERAPEUTICS, published 2025):
Positions count from the first letter of the chain named. In names and notes the source's numbering stands.

B1: PRO2230 (scFv 37-20-B03-sc09.1) (scFv)
scFv: DIQMTQSPASLSASVGDRVTITCQASQSIGTYLAWYQQKPGKPPKLLIYRAFILASGVPSRFSGSGSGTDFTLTISSLQPEDFATYYCQSNFYSDSTTIGPNAFGTGTKVTVLGGGGGSGGGGSGGGGSGGGGSEVQLVESGGGLVQPGGSLRLSCAASGFSFNSDYWIYWVRQAPGKGLEWIASIYGGSSGNTQYASWAQGRFTISRDNSKNTVYLQMNSLRAEDTAVYFCARGYVDYGGATDLWGQGTLVTVSS
notes: also called PRO2230 wt; a-PD-L1 wt
B2: PRO3310 (scFv 37-20-B03-sc09.1_(L12R, T101R, L144A, T146Q)) (scFv)
scFv: B1 scFv with L145R, T227R, L251A, T253Q
notes: PRO2230 variant; VH substitutions, AHo numbering; also called PRO2230 L12R-T101R-L144A-T146Q
B3: PRO2934 (scFv 37-20-B03-sc09.1_(L144K, S148L)) (scFv)
scFv: B1 scFv with L251K, S255L
notes: PRO2230 variant; VH substitutions, AHo numbering; also called PRO2230 L144K-S148L
B4: PRO3312 (scFv 37-20-B03-sc09.1_(T101R, T146Q)) (scFv)
scFv: B1 scFv with T227R, T253Q
notes: PRO2230 variant; VH substitutions, AHo numbering; also called PRO2230 T101R-T146Q
B5: PRO2935 (scFv 37-20-B03-sc09.1_(L144A, S148N)) (scFv)
scFv: B1 scFv with L251A, S255N
notes: PRO2230 variant; VH substitutions, AHo numbering; also called PRO2230 L144A-S148N
B6: PRO2986 (scFv 37-20-B03-sc09.1_(T146A)) (scFv)
scFv: B1 scFv with T253A
notes: PRO2230 variant; VH substitution, AHo numbering; also called PRO2230 T146A
B7: PRO2903 (scFv 37-20-B03-sc09.1_(L12R, V103T, L144Q)) (scFv)
scFv: B1 scFv with L145R, V229T, L251Q
notes: VH substitutions, AHo numbering; also called PRO2230-L12R-V103T-L144Q
B8: PRO2984 (scFv 37-20-B03-sc09.1_(L12S, V103T, L144T)) (scFv)
scFv: B1 scFv with L145S, V229T, L251T
notes: VH substitutions, AHo numbering; also called PRO2230-L12S-V103T-L144T
B9: PRO2950 (scFv 37-20-B03-sc09.1_(T146Q)) (scFv)
scFv: B1 scFv with T253Q
notes: PRO2230 variant; VH substitution, AHo numbering; also called PRO2230 T146Q
B10: PRO2948 (scFv 37-20-B03-sc09.1_(T146R)) (scFv)
scFv: B1 scFv with T253R
notes: PRO2230 variant; VH substitution, AHo numbering; also called PRO2230 T146R
B11: PRO2914 (scFv 37-20-B03-sc09.1_(T101S, L144A, T146Q)) (scFv)
scFv: B1 scFv with T227S, L251A, T253Q
notes: PRO2230 variant; VH substitutions, AHo numbering; also called PRO2230 T101S-L144A-T146Q
B12: PRO2985 (scFv 37-20-B03-sc09.1_(T101A)) (scFv)
scFv: B1 scFv with T227A
notes: PRO2230 variant; VH substitution, AHo numbering; also called PRO2230 T101A
B13: PRO3306 (scFv 37-20-B03-sc09.1_(L12A, T101R, L144A, T146Q)) (scFv)
scFv: B1 scFv with L145A, T227R, L251A, T253Q
notes: PRO2230 variant; VH substitutions, AHo numbering; also called PRO2230 L12A-T101R-L144A-T146Q
B14: PRO2913 (scFv 37-20-B03-sc09.1_(T101S, T146Q)) (scFv)
scFv: B1 scFv with T227S, T253Q
notes: PRO2230 variant; VH substitutions, AHo numbering; also called PRO2230 T101S-T146Q
B15: PRO2933 (scFv 37-20-B03-sc09.1_(L144K, T146E, S148K)) (scFv)
scFv: B1 scFv with L251K, T253E, S255K
notes: PRO2230 variant; VH substitutions, AHo numbering; also called PRO2230 L144K-T146E-S148K
B16: PRO2987 (scFv 37-20-B03-sc09.1_(P15A)) (scFv)
scFv: B1 scFv with P148A
notes: PRO2230 variant; VH substitution, AHo numbering; also called PRO2230 P15A
B17: PRO2949 (scFv 37-20-B03-sc09.1_(T146E)) (scFv)
scFv: B1 scFv with T253E
notes: PRO2230 variant; VH substitution, AHo numbering; also called PRO2230 T146E
B18: PRO2952 (scFv 37-20-B03-sc09.1_(T101S)) (scFv)
scFv: B1 scFv with T227S
notes: PRO2230 variant; VH substitution, AHo numbering; also called PRO2230 T101S
B19: PRO3307 (scFv 37-20-B03-sc09.1_(L12A, T101S, L144A, T146R)) (scFv)
scFv: B1 scFv with L145A, T227S, L251A, T253R
notes: PRO2230 variant; VH substitutions, AHo numbering; also called PRO2230 L12A-T101S-L144A-T146R
B20: PRO3309 (scFv 37-20-B03-sc09.1_(L12R, T101S, L144A, T146Q)) (scFv)
scFv: B1 scFv with L145R, T227S, L251A, T253Q
notes: PRO2230 variant; VH substitutions, AHo numbering; also called PRO2230 L12R-T101S-L144A-T146Q
B21: PRO2947 (scFv 37-20-B03-sc09.1_(T146K)) (scFv)
scFv: B1 scFv with T253K
notes: PRO2230 variant; VH substitution, AHo numbering; also called PRO2230 T146K
B22: PRO3311 (scFv 37-20-B03-sc09.1_(L12A, T101Q, L144A, T146Q)) (scFv)
scFv: B1 scFv with L145A, T227Q, L251A, T253Q
notes: PRO2230 variant; VH substitutions, AHo numbering; also called PRO2230 L12A-T101Q-L144A-T146Q
B23: PRO2951 (scFv 37-20-B03-sc09.1_(T101R)) (scFv)
scFv: B1 scFv with T227R
notes: PRO2230 variant; VH substitution, AHo numbering; also called PRO2230 T101R
B24: PRO3308 (scFv 37-20-B03-sc09.1_(L12A, T101S, L144K, T146Q)) (scFv)
scFv: B1 scFv with L145A, T227S, L251K, T253Q
notes: PRO2230 variant; VH substitutions, AHo numbering; also called PRO2230 L12A-T101S-L144K-T146Q
B25: PRO2988 (scFv 37-20-B03-sc09.1_(P48A)) (scFv)
scFv: B1 scFv with P176A
notes: PRO2230 variant; VH substitution, AHo numbering; also called PRO2230 P48A
B26: PRO2915 (scFv 37-20-B03-sc09.1_(L12A, T101S, L144A, T146Q)) (scFv)
scFv: B1 scFv with L145A, T227S, L251A, T253Q
notes: PRO2230 variant; VH substitutions, AHo numbering; also called PRO2230 L12A-T101S-L144A-T146Q

Each binder was assayed against pre-existing anti-drug antibodies (ADA) present in human sera (assay: pre-existing ADA ELISA, scFv coated, human sera unspiked vs spiked).

Row | Binder | Mean No of serum samples >30% inhibition (30% CCP) with SCP (serum samples) | No of serum samples >30% inhibition (30% CCP) without SCP (serum samples)
1 | B1 | 9 | 18
2 | B2 | 3 | 6
3 | B3 | 2 | 2
4 | B4 | 1 | 2
5 | B5 | 8 | 8
6 | B6 | 8 | 2
7 | B7 | 5 | 5
8 | B8 | 5 | 5
9 | B9 | 4 | 4
10 | B10 | 1 | 0
11 | B11 | 5 | 5
12 | B12 | 2 | 2
13 | B13 | 0 | 7
14 | B14 | 3 | 2
15 | B15 | 1 | 0
16 | B16 | 2 | 7
17 | B17 | 1 | 2
18 | B18 | 5 | 8
19 | B19 | 4 | 7
20 | B20 | 1 | 4
21 | B21 | 1 | 2
22 | B22 | 7 | 10
23 | B23 | 1 | 0
24 | B24 | 2 | 7
25 | B25 | 3 | 7
26 | B26 | 2 | 1

These binders were tested against T1, human a-PD-L1 Fc (Sino Biological, 10084-H02H, LC11NO2402) (human, UniProt Q9NZQ7 19-239) (assay: SPR, PD-L1 Fc immobilised, scFv analyte, 1:1 fit).
T1 construct: Bought Fc fusion immobilised on the SPR chip; Printed as 'a-PD-L1 Fc' but used as the antigen (ligand) for the anti-PD-L1 scFvs; also called Human PD-L1; not shown: Fc part
Method: The mutation variants were then injected at concentrations of 10 nM, 2 nM and 0.4 nM over the ligand-immobilized and reference spots. The wild type variants were used as a control, while an empty spot was used as reference.
After each cycle with analyte, the surface was regenerated with a 3M MgCl₂ solution, thereby allowing the next analyte cycle to have only free ligand available. Binding affinity KD was globally calculated by the Bruker SPR software based on the binding association (kₒₙ) and dissociation (Koff) rate, by fitting a 1:1 Langmuir model to the curves obtained by the cycles with the three different concentrations of the analyte.

T1 sequence (Q9NZQ7 19-239 limits assumed): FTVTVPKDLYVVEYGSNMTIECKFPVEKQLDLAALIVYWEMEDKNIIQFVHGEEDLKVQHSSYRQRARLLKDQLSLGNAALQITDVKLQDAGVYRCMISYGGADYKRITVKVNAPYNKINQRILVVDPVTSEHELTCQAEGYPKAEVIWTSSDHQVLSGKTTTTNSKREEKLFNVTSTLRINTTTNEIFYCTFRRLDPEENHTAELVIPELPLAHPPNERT

Row | Binder | Kd [pM] | n-fold to wt [fold]
27 | B1 | 49 | 1
28 | B2 | 38 | 0.8
29 | B3 | 18 | 0.4
30 | B4 | 41 | 0.8
31 | B5 | 91 | 1.9
32 | B6 | 69 | 1.4
33 | B7 | 53 | 1.1
34 | B8 | 36 | 0.7
35 | B9 | 64 | 1.3
36 | B10 | 64 | 1.3
37 | B11 | 25 | 0.5
38 | B12 | 47 | 1
39 | B13 | 18 | 0.4
40 | B14 | 58 | 1.2
41 | B15 | 45 | 0.9
42 | B16 | 48 | 1
43 | B17 | 56 | 1.1
44 | B18 | 36 | 0.7
45 | B19 | 27 | 0.6
46 | B20 | 26 | 0.5
47 | B21 | 41 | 0.8
48 | B22 | 48 | 1
49 | B23 | 42 | 0.9
50 | B24 | 36 | 0.7
51 | B25 | 34 | 0.7
52 | B26 | 50 | 1
